{"source": "patent US8871205B2", "about": "“Methods and compositions for the treatment of immune disorders” (The University of North Carolina at Chapel Hill, priority 2009, dated 2014)", "molecules": {"B1": {"name": "Sema6A: human Sema6A-Fc (1146-S6, R&D); chimeric protein of human IgG1 Fc fragment fused to Sema6A (protein)", "chain": "GFPEDSEPISISHGNYTKQYPVFVGHKPGRNTTQRHRLDIQMIMIMNGTLYIAARDHIYTVDIDTSHTEEIYCSKKLTWKSRQADVDTCRMKGKHKDECHNFIKVLLKKNDDALFVCGTNAFNPSCRNYKMDTLEPFGDEFSGMARCPYDAKHANVALFADGKLYSATVTDFLAIDAVIYRSLGESPTLRTVKHDSKWLKEPYFVQAVDYGDYIYFFFREIAVEYNTMGKVVFPRVAQVCKNDMGGSQRVLEKQWTSFLKARLNCSVPGDSHFYFNILQAVTDVIRINGRDVVLATFSTPYNSIPGSAVCAYDMLDIASVFTGRFKEQKSPDSTWTPVPDERVPKPRPGCCAGSSSLERYATSNEFPDDTLNFIKTHPLMDEAVPSIFNRPWFLRTMVRYRLTKIAVDTAAGPYQNHTVVFLGSEKGIILKFLARIGNSGFLNDSLFLEEMSVYNSEKCSYDGVEDKRIMGMQLDRASSSLYVAFSTCVIKVPLGRCERHGKCKKTCIASRDPYCGWIKEGGACSHLSPNSRLTFEQDIERGNTDGLGDCHNSFVALNGHSSSLLPSTTTSDSTAQEGYESRGGMLDWKHLLDSPDSTDPLGAVSSHNHQDKKGVIRESYLKGHDQLVPVT", "modifications": "left off: a dimerising Fc or GST", "notes": "human Sema6A-Fc (1146-S6, R&D); chimeric protein of human IgG1 Fc fragment fused to Sema6A"}}, "tested_on": "WT or Plxna4−/− peritoneal macrophages", "assay": "TNF-α and IL-6 production (RT-PCR, ELISA) in peritoneal macrophages stimulated with Sema3A-Fc or Sema6A-Fc in the absence or presence of LPS", "format": "cell-based, mouse", "settings": "semaphorin alone, absence of LPS; macrophages", "experimental": "Messenger RNA (FIG. 7A) or protein (FIG. 7B) levels of TNF-α and IL-6 were measured by RT-PCR and ELISA, respectively. The IgG Fc fragment (100 μg/ml) was used as a negative control. WT and Plxna4^−/− mice (n=7˜9 per group) were pretreated with either Sema3A-Fc or IgG Fc control proteins at a dosage of 25 μg per kg body weight 1 h prior to CLP procedure (FIG. 7C). Survival rate was monitored for 5 days. τP<0.05 compared with WT mice pretreated with Sema3A-Fc. WT mice (n=4 per group) were pretreated with either Sema3A-Fc or IgG Fc control proteins, followed by CLP surgery (FIG. 7D). Inflammatory cytokines in peritoneal lavage collected 4 h after CLP were determined by ELISA. * P<0.05 compared to peritoneal lavage from WT mice pretreated with Sema3A-Fc (FIG. 7E). […] Inflammatory cytokines in peritoneal lavage collected 4 h after CLP were determined by ELISA. *P<0.05 compared with peritoneal lavage from WT mice pretreated with Sema3A-Fc (FIG. 7G).\nTotal peritoneal cells were harvested from the peritoneal cavities of naïve WT or Plxna4^−/− mice with two 10 ml cold sterile PBS wash. […] The remaining cells were thoroughly washed with PBS and counted in a hemocytometer. Cytospins were prepared and stained with Diff-Quik solutions, and the number of peritoneal macrophages was determined. […]", "data": [{"molecule": "B1", "values": [{"measurement": "TNF-α and IL-6 production", "value": "Neither Sema3A nor Sema6A alone induced"}]}]}
